In general, pKd refers to the Kd on a negative log10 scale, so that one unit is a factor of ten. Low readings indicate a large Kd, high ones a small Kd.

pKd: −log10 of the molar value.

Drawing on article PMC4107134, this text covers Kd for one substance.

In test [1] the target is integrin αIIbΔ996β3 (αIIb tail truncated after GFFKR) (UniProt P05106). The experiment in a line: pull-down.
Test [2] deals with integrin αIIbβ3, wild type (UniProt P05106). As to the kind of experiment: pull-down.

With “talin head domain (THD, talin residues 1-433), purified (from UniProt P26039 1-433) (domain or fragment)”, the pKd in test [1] is 6.69; in test [2], 6.67.
